Source: article PMC3848460

Columns and labels:
[1] = biological target: T1, SYP41 (Arabidopsis thaliana) (UniProt O65359)
T1 sequence: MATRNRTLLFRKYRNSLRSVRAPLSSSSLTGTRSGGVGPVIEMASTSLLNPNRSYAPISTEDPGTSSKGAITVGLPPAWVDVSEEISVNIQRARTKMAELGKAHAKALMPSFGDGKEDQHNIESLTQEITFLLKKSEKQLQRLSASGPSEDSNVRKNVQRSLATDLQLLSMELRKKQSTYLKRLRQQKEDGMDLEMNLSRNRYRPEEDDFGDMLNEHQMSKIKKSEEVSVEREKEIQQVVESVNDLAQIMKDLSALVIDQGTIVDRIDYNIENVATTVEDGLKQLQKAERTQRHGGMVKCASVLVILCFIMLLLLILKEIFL

[2] = biological target: T2, SYP42 (Arabidopsis thaliana) (UniProt Q9SWH4)
T2 sequence: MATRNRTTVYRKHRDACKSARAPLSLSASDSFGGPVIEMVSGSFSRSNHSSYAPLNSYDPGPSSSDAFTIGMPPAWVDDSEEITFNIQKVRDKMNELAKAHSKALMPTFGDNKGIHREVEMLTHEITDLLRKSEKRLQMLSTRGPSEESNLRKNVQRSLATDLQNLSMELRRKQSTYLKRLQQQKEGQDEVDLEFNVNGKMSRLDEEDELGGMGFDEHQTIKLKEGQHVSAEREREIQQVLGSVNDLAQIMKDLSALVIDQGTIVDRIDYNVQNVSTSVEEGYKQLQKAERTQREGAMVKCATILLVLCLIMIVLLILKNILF

[3] = biological target: T3, SYP43 (Arabidopsis thaliana) (UniProt Q9SUJ1)
T3 sequence: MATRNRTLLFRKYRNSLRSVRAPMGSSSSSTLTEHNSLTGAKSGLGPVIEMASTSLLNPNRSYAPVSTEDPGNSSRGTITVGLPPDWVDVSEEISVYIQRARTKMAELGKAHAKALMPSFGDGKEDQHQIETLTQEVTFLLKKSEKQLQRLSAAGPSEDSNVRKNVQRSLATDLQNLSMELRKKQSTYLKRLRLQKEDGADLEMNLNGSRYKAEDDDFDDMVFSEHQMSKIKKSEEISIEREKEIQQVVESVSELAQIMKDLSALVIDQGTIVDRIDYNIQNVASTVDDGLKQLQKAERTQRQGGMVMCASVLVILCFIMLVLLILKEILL

soluble fragment of VTI12 (domain or fragment)
< 4%: NBD fluorescence increase (lipid mixing) of SYP41 acceptor vesicles with R-VTI11 donor vesicles after 30 min preincubation with YKT62 and VTI12s; pair blocked: m1 + m4 [1] | NBD fluorescence increase (lipid mixing) of SYP41 acceptor vesicles with R-VTI12 donor vesicles after 30 min preincubation with YKT62 and VTI12s; pair blocked: m1 + m5 [1] | NBD fluorescence increase (lipid mixing) of SYP42 acceptor vesicles with R-VTI11 donor vesicles after 30 min preincubation with YKT62 and VTI12s; pair blocked: m2 + m4 [2] | NBD fluorescence increase (lipid mixing) of SYP42 acceptor vesicles with R-VTI12 donor vesicles after 30 min preincubation with YKT62 and VTI12s; pair blocked: m2 + m5 [2] | NBD fluorescence increase (lipid mixing) of SYP43 acceptor vesicles with R-VTI11 donor vesicles after 30 min preincubation with YKT62 and VTI12s; pair blocked: m3 + m4 [3] | NBD fluorescence increase (lipid mixing) of SYP43 acceptor vesicles with R-VTI12 donor vesicles after 30 min preincubation with YKT62 and VTI12s; pair blocked: m3 + m5 [3]

B1: soluble fragment of VTI11 (domain or fragment)
chain: MSDVFDGYERQYCELSASLSKKCSSAISLDGEQKKQKLSEIKSGLENAEVLIRKMDLEARTLPPNLKSSLLVKLREFKSDLNNFKTEVKRITSGQLNAAARDELLEAGMADTKTASADQRARLMMSTERLGRTTDRVKDSRRTMMETEEIGVSILQDLHGQRQSLLRAHETLHGVDDNIGKSKKILTDMTRRMNKNKWTI
< 4%: NBD fluorescence increase (lipid mixing) of SYP41 acceptor vesicles with R-VTI11 donor vesicles after 30 min preincubation with YKT62 and VTI11s; pair blocked: m1 + m4 [1] | NBD fluorescence increase (lipid mixing) of SYP41 acceptor vesicles with R-VTI12 donor vesicles after 30 min preincubation with YKT62 and VTI11s; pair blocked: m1 + m5 [1] | NBD fluorescence increase (lipid mixing) of SYP42 acceptor vesicles with R-VTI11 donor vesicles after 30 min preincubation with YKT62 and VTI11s; pair blocked: m2 + m4 [2] | NBD fluorescence increase (lipid mixing) of SYP42 acceptor vesicles with R-VTI12 donor vesicles after 30 min preincubation with YKT62 and VTI11s; pair blocked: m2 + m5 [2] | NBD fluorescence increase (lipid mixing) of SYP43 acceptor vesicles with R-VTI11 donor vesicles after 30 min preincubation with YKT62 and VTI11s; pair blocked: m3 + m4 [3] | NBD fluorescence increase (lipid mixing) of SYP43 acceptor vesicles with R-VTI12 donor vesicles after 30 min preincubation with YKT62 and VTI11s; pair blocked: m3 + m5 [3]
